Reference: patent publication US20030203372A1, “Analysis method” (priority 2000, published 2003)

Legend:
[1] = test system: human breast and ovary tumors; assay: Custom gene array, breast and ovary tumors versus normal adjacent tissue; conditions: Table 19; for gene expression level on custom gene array, Breast nor H / gene expression level on custom gene array, Breast nor K / gene expression level on custom gene array, Ovary nor E / gene expression level on custom gene array, Ovary nor F / gene expression level on custom gene array, Ovary nor G: normal adjacent tissue; for gene expression level on custom gene array, Breast nor H / gene expression level on custom gene array, Breast tum H: patient H; for gene expression level on custom gene array, Breast nor K / gene expression level on custom gene array, Breast tum K: patient K; for gene expression level on custom gene array, Breast tum H / gene expression level on custom gene array, Breast tum K / gene expression level on custom gene array, Ovary tum E / gene expression level on custom gene array, Ovary tum F / gene expression level on custom gene array, Ovary tum G: tumor tissue; for gene expression level on custom gene array, Ovary nor E / gene expression level on custom gene array, Ovary tum E: patient E; for gene expression level on custom gene array, Ovary nor F / gene expression level on custom gene array, Ovary tum F: patient F; for gene expression level on custom gene array, Ovary nor G / gene expression level on custom gene array, Ovary tum G: patient G
From the text: A study has been performed to examine the expression of these genes in a selection of breast and ovary tumors, comparing expression with normal adjacent tissue from the same patient. There is expected to be a large degree of variation between different patients, and the study here contains only 5 patients with a range of diagnoses.
Patients are designated as Letters:
E: person. Diagnosis: ovarian adenocarcinoma. Normal ovarian tissue derived from an age-matched separate individual.
: person. Diagnosis: poorly differentiated adenocarcinoma. Normal ovarian tissue derived from the same individual.
G: person. Diagnosis: moderately-differentiated adenocarcinoma. Normal ovarian tissue derived from the same individual.
H: person. Diagnosis: invasive ductal carcinoma. Normnal breast tissue derived from the same individual.
K: person. Diagnosis: invasive ductal carcinoma. Normal breast tissue derived from the same individual.
Data normalisation was done per-chip to correct for differences in labelling and hybridization efficiency. Per-gene normalisation was done such that the expression values of each gene are relative to the median value of that gene throughout the series of samples. By comparing the expression values under normal (nor) and tumor (turn) for a single patient, differences in expression between the normal and malignant tissue of that patient can be inferred.

[2] = test system: primary human cell cultures (11 cell types); assay: Custom gene array, 11 human cell types in normoxia or hypoxia for 6 hr and 18 hr; assay type: cell-based
Description: Equivalent cultures of non-immortalized, non-transformed primary human cells of 10 distinct types, were cultured in either normoxia or were exposed to hypoxia for 6 hr and 18 hr, and gene expression changes were determined. […] Moreover, unlike the vast majority of information in the public domain relating to genes responsive to hypoxia, all of these cells were human and were cultured without any modifications following isolation from the human donors.
A non-primary cell type (#9) was used to represent neurons, since primary human neurons are difficult to source. Therefore a total of 11 cell types are compared. It should be noted that RNA from hepatocytes at the […] timepoint of hypoxia was not available for this work.
Each RNA sample was hybridised to duplicate or triplicate arrays, to ensure reproducible data, and was analysed using GeneSpring software. Data from replicate arrays were merged during analysis to generate mean values. Data normalisation was achieved per-array using the aforementioned list of control genes, such that differences in RNA labelling or hybridization due to experimental variation were corrected by referencing each gene to the mean value of the reference genes on the same array. Also, for each gene, expression values were obtained which represent the value in each experimental condition (e.g. macrophages 6 hr hypoxia) as compared to the median of value of that gene throughout the full range of experimental conditions (i.e. from all cell types). […] This is common in microarray data analysis.

B1: p2A23 (nucleic acid, listed as Homo Sapiens)
DNA: AGAAGAAGCTGGCCAAGGATATGGGAGCAACCACCATGGACCAGAAGTCTCTCTGGGCAGGTGTAGTGGTCTTGCTGCTTCTCCAGGGAGGATCTGCCTACAAACTGGTTTGCTACTTTACCAACTGGTCCCAGGACCGGCAGGAACCAGGAAAATTCACCCCTGAGAATATTGACCCCTTCCTATGCTCTCATCTCATCTATTCATTCGCCAGCATCGAAAACAACAAGGTTATCATCAAGGACAAGAGTGAAGTGATGCTCTACCAGACCATCAACAGTCTCAAAACCAAGAATCCCAAACTGAAAATTCTCTTGTCCATTGGAGGGTACCTGTTTGGTTCCAAAGGGTTCCACCCTATGGTGGATTCTTCTACATCACGCTTGGAATTCATTAACTCCATAATCCTGTTTCTGAGGAACCATAACTTTGATGGACTGGATGTAAGCTGGATCTACCCAGATCAGAAAGAAAACACTCATTTCACTGTGCTGATTCATGAGTTAGCAGAAGCCTTTCAGAAGGACTTCACAAAATCCACCAAGGAAAGGCTTCTCTTGACTGCGGGCGTATCTGCAGGGAGGCAAATGATTGATAACAGCTATCAAGTTGAGAAACTGGCAAAAGATCTGGATTTCATCAACCTCCTGTCCTTTGACTTCCATGGGTCTTGGGAAAAGCCCCTTATCACTGGCCACAACAGCCCTCTGAGCAAGGGGTGGCAGGACAGAGGGCCAAGCTCCTACTACAATGTGGAATATGCTGTGGGGTACTGGATACATAAGGGAATGCCATCAGAGAAGGTGGTCATGGGCATCCCCACATATGGGCACTCCTTCACACTGGCCTCTGCAGAAACCACCGTGGGGGCCCCTGCCTCTGGCCCTGGAGCTGCTGGACCCATCACAGAGTCTTCAGGCTTCCTGGCCTATTATGAGATCTGCCAGTTCCTGAAAGGAGCCAAGATCACGCGCCTCCAGGATCAGCAGGTTCCCTACGCAGTCAAGGGGAACCAGTGGGTGGGCTATGATGATGTGAAGAGTATGGAGACCAAGGTTCAGTTCTTAAAGAATTTAAACCTGGGAGGAGCCATGATCTGGTCTATTGACATGGATGACTTCACTGGCAAATCCTGCAACCAGGGCCCTTACCCTCTTGTCCAAGCAGTCAAGAGAAGCCTTGGCTCCTTGTGAAGGATTAACTTACAGAGAAGCAGGCAAGATGACCTTGCTGCCTGGGGCCTGCTCTCTCCCAGGAATTCTCATGTGGGATTCCCCTTGCCAGGCTGGCCTTTGGATCTCTCTTCCAAGCCTTTCCTGACTTCCTCTTAGATCATAGATTGGACCTGGTTTTGTTTTCCTGCAGCTGTTGACTTGTTGCCCTGAAGTACAATAAAAAAAATTCATTTTGCTCCAGTA
- gene expression level on custom gene array, Breast nor H [1]: 1.36
- gene expression level on custom gene array, Breast nor K [1]: 0.91
- gene expression level on custom gene array, Breast tum H [1]: 2.22
- gene expression level on custom gene array, Breast tum K [1]: 2.01
- gene expression level on custom gene array, Ovary nor E [1]: 0.66
- gene expression level on custom gene array, Ovary nor F [1]: 0.48
- gene expression level on custom gene array, Ovary nor G [1]: 4.18
- gene expression level on custom gene array, Ovary tum E [1]: 0.78
- gene expression level on custom gene array, Ovary tum F [1]: 0.61
- gene expression level on custom gene array, Ovary tum G [1]: 0.74
- mRNA expression level ([2]; cell type #1, HY (hypoxia) 6 hr): 1.24
- mRNA expression level ([2]; cell type #1, HY (hypoxia) 18 hr): 1.15
- mRNA expression level ([2]; cell type #1, NO (normoxia)): 1.79
- mRNA expression level ([2]; cell type #2, HY (hypoxia) 6 hr): 2.26
- mRNA expression level ([2]; cell type #2, HY (hypoxia) 18 hr): 1.79
- mRNA expression level ([2]; cell type #2, NO (normoxia)): 1.81
- mRNA expression level ([2]; cell type #3, HY (hypoxia) 6 hr): 1.28
- mRNA expression level ([2]; cell type #3, HY (hypoxia) 18 hr): 0.95
- mRNA expression level ([2]; cell type #3, NO (normoxia)): 1.11
- mRNA expression level ([2]; cell type #4, HY (hypoxia) 6 hr): 0.87
- mRNA expression level ([2]; cell type #4, HY (hypoxia) 18 hr): 0.77
- mRNA expression level ([2]; cell type #4, NO (normoxia)): 1.26
- mRNA expression level ([2]; cell type #5, HY (hypoxia) 6 hr): 1.43
- mRNA expression level ([2]; cell type #5, NO (normoxia)): 0.77
- mRNA expression level ([2]; cell type #6, HY (hypoxia) 6 hr): 0.91
- mRNA expression level ([2]; cell type #6, NO (normoxia)): 0.76

B2: p1K9 (nucleic acid, listed as Homo Sapiens)
DNA: AGTGTGAAATCTTCAGAGAAGAATTTCTCTTTAGTTCTTTGCAAGAAGGTAGAGATAAAGACACTTTTTCAAAAATGGCAATGGTATCAGAATTCCTCAAGCAGGCCTGGTTTATTGAAAATGAAGAGCAGGAATATGTTCAAACTGTGAAGTCATCCAAAGGTGGTCCCGGATCAGCGGTGAGCCCCTATCCTACCTTCAATCCATCCTCGGATGTCGCTGCCTTGCATAAGGCCATAATGGTTAAAGGTGTGGATGAAGCAACCATCATTGACATTCTAACTAAGCGAAACAATGCACAGCGTCAACAGATCAAAGCAGCATATCTCCAGGAAACAGGAAAGCCCCTGGATGAAACACTTAAGAAAGCCCTTACAGGTCACCTTGAGGAGGTTGTTTTAGCTCTGCTAAAAACTCCAGCGCAATTTGATGCTGATGAACTTCGTGCTGCCATGAAGGGCCTTGGAACTGATGAAGATACTCTAATTGAGATTTTGGCATCAAGAACTAACAAAGAAATCAGAGACATTAACAGGGTCTACAGAGAGGAACTGAAGAGAGATCTGGCCAAAGACATAACCTCAGACACATCTGGAGATTTTCGGAACGCTTTGCTTTCTCTTGCTAAGGGTGACCGATCTGAGGACTTTGGTGTGAATGAAGACTTGGCTGATTCAGATGCCAGGGCCTTGTATGAAGCAGGAGAAAGGAGAAAGGGGACAGACGTAAACGTGTTCAATACCATCCTTACCACCAGAAGCTATCCACAACTTCGCAGAGTGTTTCAGAAATACACCAAGTACAGTAAGCATGACATGAACAAAGTTCTGGACCTGGAGTTGAAAGGTGACATTGAGAAATGCCTCACAGCTATCGTGAAGTGCGCCACAAGCAAACCAGCTTTCTTTGCAGAGAAGCTTCATCAAGCCATGAAAGGTGTTGGAACTCGCCATAAGGCATTGATCAGGATTATGGTTTCCCGTTCTGAAATTGACATGAATGATATCAAAGCATTCTATCAGAAGATGTATGGTATCTCCCTTTGCCAAGCCATCCTGGATGAAACCAAAGGAGATTATGAGAAAATCCTGGTGGCTCTTTGTGGAGGAAACTAAACATTCCCTTGATGGTCTCAAGCTATGATCAGAAGACTTTAATTATATATTTTCATCCTATAAGCTTAAATAGGAAAGTTTCTTCAACAGGATTACAGTGTAGCTACCTACATGCTGAAAAATATAGCCTTTAAATCATTTTTATATTATAACTCTGTATAATAGAGATAAGTCCATTTTTTAAAAATGTTTTCCCCAAACCATAAAACCCTATACAAGTTGTTCTAGTAACAATACATGAGAAAGATGTCTATGTAGCTGAAAATAAAATGACGTCACAAGAC
- gene expression level on custom gene array, Breast nor H [1]: 1.20
- gene expression level on custom gene array, Breast nor K [1]: 0.23
- gene expression level on custom gene array, Breast tum H [1]: 0.54
- gene expression level on custom gene array, Breast tum K [1]: 0.12
- gene expression level on custom gene array, Ovary nor E [1]: 0.46
- gene expression level on custom gene array, Ovary nor F [1]: 1.33
- gene expression level on custom gene array, Ovary nor G [1]: 1.07
- gene expression level on custom gene array, Ovary tum E [1]: 4.09
- gene expression level on custom gene array, Ovary tum F [1]: 1.17
- gene expression level on custom gene array, Ovary tum G [1]: 0.31
